To fix the notation:
B8: Gαi/q chimera (other)
chain: MGCTLSAEDKAAVERSKMIDRNLREDGERSRRELKLLLLGTGESGKSTFIKQMRIIHGSGYSDEDKRGFTKLVYQNIFTAMQAMIRAMDTLKIPYKYEHNKAHAQLVREVDVEKVSAFENPYVDAIKSLWNDPGIQECYDRRREYQLSDSTKYYLNDLDRVADPSYLPTQQDVLRVRVPTTGIIEYPFDLQSVIFRMVDVGGQRSERRKWIHCFENVTSIMFLVALSEYDQVLVESDNENRMEESKALFRTIITYPWFQNSSVILFLNKKDLLEEKIMYSHLVDYFPEYDGPQRDAQAAREFILKMFVDLNPDSDKIIYSHFTCATDTENIRFVFAAVKDTILQLNLKEYNLV
modifications: biotinylated (bead-bound in FCPIA)

Experiment in all cases: flow cytometry protein interaction assay
In general terms: A flow cytometer gives signals particle by particle.

Experiment [1] deals with T1, RhoA (UniProt P61586 1-193, biotinylated where bead-bound; Alexa Fluor 532 label where AF-labeled).
T1 sequence (P61586 whole entry): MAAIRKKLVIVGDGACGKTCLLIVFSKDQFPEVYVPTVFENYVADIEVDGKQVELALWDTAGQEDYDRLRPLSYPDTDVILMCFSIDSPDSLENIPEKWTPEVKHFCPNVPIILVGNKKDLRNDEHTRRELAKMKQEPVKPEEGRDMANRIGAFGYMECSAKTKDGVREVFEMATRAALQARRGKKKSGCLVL
The experiment “Gαi/q chimera” concerns the target B8.
Experiment [2] deals with p63RhoGEF DH/PH 3A alanine insertion mutant (human, UniProt Q86VW2-1 149-502, 3A: 3 alanines inserted after Thr338).
Experiment [3] addresses p63RhoGEF DH/PH 5A alanine insertion mutant (human, UniProt Q86VW2-1 149-502, 5A: 5 alanines inserted after Thr338).
Experiment [4] addresses p63RhoGEF DH/PH 2A alanine insertion mutant (human, UniProt Q86VW2-1 149-502, 2A: 2 alanines inserted after Thr338).
In experiment [5] the target is p63RhoGEF DH/PH 4A alanine insertion mutant (human, UniProt Q86VW2-1 149-502, 4A: 4 alanines inserted after Thr338).
The target of experiment [6] is p63RhoGEF DH/PH 6A alanine insertion mutant (human, UniProt Q86VW2-1 149-502, 6A: 6 alanines inserted after Thr338).
The target in experiment [7] is p63RhoGEF DH/PH 7A alanine insertion mutant (human, UniProt Q86VW2-1 149-502, 7A: 7 alanines inserted after Thr338).
In experiment [8] the target is p63RhoGEF DH/PH 1A alanine insertion mutant (human, UniProt Q86VW2-1 149-502, 1A: 1 alanine inserted after Thr338).
Experiment [9] has as its target T1, RhoA. The source holds these as a separate data set.

B1: p63RhoGEF DH domain (residues 149-338) (domain or fragment)
chain: not shown
B1: affinity with RhoA [1] was put at a Ki of 300 nM.

B2: p63RhoGEF DH/PH-Δ(397-402) (domain or fragment)
chain: not shown
For B2, in the experiment with Gαi/q chimera, the affinity corresponds to a Ki of 48 nM.

B3: p63RhoGEF DH/PH-G340I (domain or fragment)
chain: not shown
Take B3: the Ki (as a rule, a dissociation constant, usually derived from enzyme kinetics or from competition with a known ligand) stood at 1200 nM with RhoA [1] and 670 nM in the experiment with Gαi/q chimera.

B4: p63RhoGEF DH/PH-R341E (domain or fragment)
chain: not shown
modifications: Alexa Fluor 532 label in direct binding to RhoA; unlabeled as competitor
For B4, the Ki stood at 94 nM in the experiment with RhoA [1] and 120 nM in the experiment with Gαi/q chimera.

B5: p63RhoGEF DH/PH-R341A (domain or fragment)
chain: not shown
modifications: Alexa Fluor 532 label in direct binding to RhoA; unlabeled as competitor
Consider B5, for which the results for the Ki with RhoA [1] and in the experiment with Gαi/q chimera were 190 nM and 75 nM, respectively.

B6: p63RhoGEF DH/PH-M336S (domain or fragment)
chain: not shown
In the experiment with Gαi/q chimera, B6 returned a Ki of 68 nM.

B7: p63RhoGEF DH/PH-P330L (domain or fragment)
chain: not shown
For the molecule B7, in the experiment with Gαi/q chimera, the affinity, expressed as Ki, was 40 nM.
For the molecule B8, the binding result in [2], in [3], in experiment [4], in experiment [5], in experiment [6] and in experiment [7] was “binds” each time. Besides, the binding result in [8] is “binds”.

B9: Gαi/q bound to p63RhoGEF DH/PH wild type (complex)
chain 1: MGCTLSAEDKAAVERSKMIDRNLREDGERSRRELKLLLLGTGESGKSTFIKQMRIIHGSGYSDEDKRGFTKLVYQNIFTAMQAMIRAMDTLKIPYKYEHNKAHAQLVREVDVEKVSAFENPYVDAIKSLWNDPGIQECYDRRREYQLSDSTKYYLNDLDRVADPSYLPTQQDVLRVRVPTTGIIEYPFDLQSVIFRMVDVGGQRSERRKWIHCFENVTSIMFLVALSEYDQVLVESDNENRMEESKALFRTIITYPWFQNSSVILFLNKKDLLEEKIMYSHLVDYFPEYDGPQRDAQAAREFILKMFVDLNPDSDKIIYSHFTCATDTENIRFVFAAVKDTILQLNLKEYNLV
chain 2: not shown
modifications: biotinylated (bead-bound)
Turning to B9, the Kd (usually a measure of binding affinity in units of concentration) with RhoA [9] came to 17 nM.

These data come from publication PMC2862694 (Cellular signalling, 2010).
